Measurements as given in patent US20060257406A1 (published 2006).
Where a chain is given by its changes, count along the chain named.

Columns and labels:
[1] = molecular target: T1, human TNFα (human, UniProt P01375 77-233); assay: TNF receptor assay (ELISA): inhibition of TNF binding to plate-bound TNF receptor 1-Fc
T1 construct: also called TAR1; TNF alpha

[2] = molecular target: T1, human TNFα; assay: cell-based or functional assay
[3] = molecular target: T1, human TNFα; assay: TNF receptor assay (ELISA): inhibition of TNF binding to plate-bound TNF receptor 1-Fc; remark: listed apart in the source
[4] = molecular target: T1, human TNFα; assay: as above; remark: listed apart in the source
[5] = molecular target: T1, human TNFα; assay: cell-based or functional assay; remark: listed apart in the source
[6] = molecular target: T1, human TNFα; assay: TNF receptor assay (ELISA), fermenter material purified by cation exchange FPLC
[7] = molecular target: T2, mouse serum albumin (mouse, UniProt P07724 25-608); assay: inhibition biacore: dAb premixed with MSA, binding to MSA-coated CM5 chip, Klotz plot (estimated Kd)
T2 construct: biotinylated MSA (about 2 biotins per molecule) in the capture ELISA; also called MSA
Description: The purified dabs were then analysed by inhibition biacore to determine Kd. […] Once the required concentrations of dAb had been determined, MSA antigen at a range of concentrations around the expected Kd was premixed with the dAb and incubated overnight. Binding to the MSA coated biacore chip of dAb in each of the premixes was then measured at a high flow-rate of 30 μl/minute.

[8] = molecular target: T3, human serum albumin (human, UniProt P02768 25-609); assay: capture ELISA: dAb on protein L, biotinylated HSA, streptavidin-HRP
T3 construct: also called HSA
Description: (§1) Two rounds of selection were performed on serum albumin using each of the libraries separately. For each selection, antigen was coated on immunotube (nunc) in 4 ml of PBS at a concentration of 100 μg/ml. In the first round of selection, each of the three libraries was panned separately against HSA (Sigma) and MSA (Sigma). In the second round of selection, phage from each of the six first round selections was panned against (i) the same antigen again (eg 1st round MSA, 2nd round MSA) and (ii) against the reciprocal antigen (eg 1st round MSA, 2nd round HSA) resulting in a total of twelve 2nd round selections. In each case, after the second round of selection 48 clones were tested for binding to HSA and MSA. Soluble dAb fragments were produced as described for scFv fragments by Harrison et al, Methods Enzymol. 1996; 267:83-109 and standard ELISA protocol was followed (Hoogenboom et al. (1991) Nucleic Acids Res., 19: 4133) except that 2% tween PBS was used as a blocking buffer and bound dabs were detected with either protein LHRP (Sigma) (for the Vκs) and protein A—HRP (Amersham Pharmacia Biotech) (for the VHs).
Next, the serum albumin binding dAbs were tested for their ability to capture biotinylated antigen from solution. ELISA protocol (as above) was followed except that ELISA plate was coated with 1 μg/ml protein L (for the Vκ clones) and 1 μg/ml protein A (for the VH clones). […]

[9] = molecular target: T2, mouse serum albumin; assay: capture ELISA: dAb on protein L, biotinylated MSA, streptavidin-HRP
Description: as §1
Next, the serum albumin binding dAbs were tested for their ability to capture biotinylated antigen from solution. ELISA protocol (as above) was followed except that ELISA plate was coated with 1 μg/ml protein L (for the Vκ clones) and 1 μg/ml protein A (for the VH clones). Soluble dAb was captured from solution as in the protocol and detection was with biotinylated MSA or HSA and streptavidin HRP. The biotinylated MSA and HSA had been prepared according to the manufacturer's instructions, with the aim of achieving an average of 2 biotins per serum albumin molecule. […] Next, the dAbs were tested for their ability to bind MSA coated on a CM5 biacore chip.

[10] = molecular target: T4, hen egg lysozyme (hen, UniProt P00698 19-147); assay: ELISA on coated hen egg lysozyme, detection with 9e10 and anti mouse IgG-HRP
T4 construct: also called HEL; HL

[11] = molecular target: T4, hen egg lysozyme; assay: selection from a dAb library
[12] = molecular target: T1, human TNFα; assay: not stated; printed in the column 'Equilibrium dissocation constant (Kd = Koff/Kon)' of the data summary
[13] = molecular target: T1, human TNFα; assay: ELISA on 1 ug/ml TNF, 200 nM IgG, anti-Fc-HRP
Description: A 96 well plate was coated with 100 ul of INF and TNFRI at 1 ug/ml concentration in PBS overnight at 4 C. 50 ul (200 nM) of IgG was then added to the wells and bound IgG was detected via anti-Fc-HRP.

T2 sequence (P07724 25-608 limits assumed): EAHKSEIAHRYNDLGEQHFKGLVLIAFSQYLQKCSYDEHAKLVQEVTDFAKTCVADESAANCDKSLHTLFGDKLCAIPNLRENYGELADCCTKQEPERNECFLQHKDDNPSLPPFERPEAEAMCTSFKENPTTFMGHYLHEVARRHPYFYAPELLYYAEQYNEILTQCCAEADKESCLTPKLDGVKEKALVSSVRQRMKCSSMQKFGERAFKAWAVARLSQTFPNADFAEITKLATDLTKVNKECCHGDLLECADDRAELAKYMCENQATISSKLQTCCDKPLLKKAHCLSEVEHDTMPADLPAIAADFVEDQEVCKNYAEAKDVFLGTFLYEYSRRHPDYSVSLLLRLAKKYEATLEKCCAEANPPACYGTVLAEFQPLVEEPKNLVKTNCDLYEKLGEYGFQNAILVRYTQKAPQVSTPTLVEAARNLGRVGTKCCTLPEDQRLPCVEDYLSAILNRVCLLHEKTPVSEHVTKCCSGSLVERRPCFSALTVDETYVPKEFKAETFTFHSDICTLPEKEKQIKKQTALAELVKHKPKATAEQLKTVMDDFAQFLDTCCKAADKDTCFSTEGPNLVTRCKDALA
T4 sequence (P00698 19-147): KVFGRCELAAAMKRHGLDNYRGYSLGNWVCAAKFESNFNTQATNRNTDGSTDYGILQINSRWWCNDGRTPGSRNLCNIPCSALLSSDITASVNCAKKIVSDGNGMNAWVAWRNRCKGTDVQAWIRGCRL
T1 sequence (P01375 77-233 limits assumed): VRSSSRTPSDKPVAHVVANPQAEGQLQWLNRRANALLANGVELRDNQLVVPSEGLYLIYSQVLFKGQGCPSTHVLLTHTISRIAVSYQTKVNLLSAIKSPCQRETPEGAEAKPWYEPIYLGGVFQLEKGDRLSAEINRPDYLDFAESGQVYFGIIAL

B1: TAR1-5-19CYS dimer (other)
chain: DIQMTQSPSSLSASVGDRVTITCRASQSIDSYLHWYQQKPGKAPKLLIYSASELQSGVPSRFSGSGSGTDFTLTISSLQPEDFATYYCQQVVWRPFTFGQGTKVEIKRC
modifications: disulphide between the C-terminal Cys of the two chains
notes: separated from monomer by cation exchange; also called the dimer
IC50 [1]: 0.3 to 0.8 nM

B2: TAR1-5-19 3U homodimer (other)
chain: DIQMTQSPSSLSASVGDRVTITCRASQSIDSYLHWYQQKPGKAPKLLIYSASELQSGVPSRFSGSGSGTDFTLTISSLQPEDFATYYCQQVVWRPFTFGQGTKVEIKRGGGGSGGGGSGGGGSDIQMTQSPSSLSASVGDRVTITCRASQSIDSYLHWYQQKPGKAPKLLIYSASELQSGVPSRFSGSGSGTDFTLTISSLQPEDFATYYCQQVVWRPFTFGQGTKVEIKR
notes: also called TAR1-5-19 homodimer with (Gly4Ser)3 linker
CA (cell assay) ND50 [2]: ~30 nM
IC50 [3]: ~20 nM

B3: TAR1-5-19d5 (other)
scFv: DIQMTQSPSSLSASVGDRVTITCRASQSIDSYLHWYQQKPGKAPKLLIYSASELQSGVPSRFSGSGSGTDFTLTISSLQPEDFATYYCQQVVWRPFTFGQGTKVEIKRGGGGSGGGGSGGGGSGGGGSGGGGSDIQMTQSPSSLSASVGDRVTITCRASQSIYDALEWYQQKPGKAPKLLIYTASRLQSGVPSRFSGSGSGTDFTLTISSLQPEDFATYYCQQVMQRPVTFGQGTKVEIK
IC50 [4]: ~8 nM

B4: TAR1-5-19d4 (other)
chain: DIQMTQSPSSLSASVGDRVTITCRASQSIDSYLHWYQQKPGKAPKLLIYSASELQSGVPSRFSGSGSGTDFTLTISSLQPEDFATYYCQQVVWRPFTFGQGTKVEIKRGGGGSGGGGSGGGGSGGGGSGGGGSDIQMTQSPSSLSASVGDRVTITCRASQSVKEFLWWYQQKPGKAPKLLIYMASNLQSGVPSRFSGSGSGTDFTLTISSLQPEDFATYYCQQKFKLPRTFGQGTKVEIK
ND50 in the cell assay [5]: ~5 nM
IC50 [6]: 8 nM
IC50 [4]: 2 to 5 nM

B5: TAR1-5-19 cys hinge (other)
chain: DIQMTQSPSSLSASVGDRVTITCRASQSIDSYLHWYQQKPGKAPKLLIYSASELQSGVPSRFSGSGSGTDFTLTISSLQPEDFATYYCQQVVWRPFTFGQGTKVEIKREPKSGDKTHFCPPCP
notes: also called cysteine hinge linker format; hinge dimer
IC50 [3]: ~2 nM

B6: TAR1-5-19 d6 (other)
chain: DIQMTQSPSSLSASVGDRVTITCRASQSIDSYLHWYQQKPGKAPKLLIYSASELQSGVPSRFSGSGSGTDFTLTISSLQPEDFATYYCQQVVWRPFTFGQGTKVEIKRGGGGSGGGGSGGGGSGGGGSGGGGSGGGGSGGGGSDIQMTQSPSSLSASVGDRVTITCRASQSIYDALEWYQQKPGKAPKLLIYTASRLQSGVPSRFSGSGSGTDFTLTISSLQPEDFATYYCQQVMQRPVTFGQGTKVEIK
IC50 [4]: ~10 nM

B7: TAR1-5-19 5U homodimer (other)
chain: DIQMTQSPSSLSASVGDRVTITCRASQSIDSYLHWYQQKPGKAPKLLIYSASELQSGVPSRFSGSGSGTDFTLTISSLQPEDFATYYCQQVVWRPFTFGQGTKVEIKRGGGGSGGGGSGGGGSGGGGSGGGGSDIQMTQSPSSLSASVGDRVTITCRASQSIDSYLHWYQQKPGKAPKLLIYSASELQSGVPSRFSGSGSGTDFTLTISSLQPEDFATYYCQQVVWRPFTFGQGTKVEIKR
notes: also called TAR1-5-19 homodimer with (Gly4Ser)5 linker
CA (cell assay) ND50 [2]: ~3 nM
IC50 [3]: ~2 nM

B8: TAR1-5-19 7U homodimer (other)
chain: DIQMTQSPSSLSASVGDRVTITCRASQSIDSYLHWYQQKPGKAPKLLIYSASELQSGVPSRFSGSGSGTDFTLTISSLQPEDFATYYCQQVVWRPFTFGQGTKVEIKRGGGGSGGGGSGGGGSGGGGSGGGGSGGGGSGGGGSDIQMTQSPSSLSASVGDRVTITCRASQSIDSYLHWYQQKPGKAPKLLIYSASELQSGVPSRFSGSGSGTDFTLTISSLQPEDFATYYCQQVVWRPFTFGQGTKVEIKR
notes: also called TAR1-5-19 homodimer with (Gly4Ser)7 linker
CA (cell assay) ND50 [2]: ~15 nM
IC50 [3]: ~10 nM

B9: MSA16 (other)
VL: DIQMTQSPSSLSASVGDRVTITCRASQSIIKHLKWYQQKPGKAPKLLIYGASRLQSGVPSRFSGSGSGTDFTLTISSLQPEDFATYYCQQGARWPQTFGQGTKVEIK
notes: also called 21; dAb MSA16
Kd [7]: 200 nM

B10: anti-serum albumin Vκ dAb clones 2, 4, 7, 41 (other)
VL: DIQMTQSPSSLSASVGDRVTITCRASQSISSYLNWYQQKPGKAPKLLIYRASPLQSGVPSRFSGSGSGTDFTLTISSLQPEDFATYYCQQTYSVPPTFGQGTKVEIK
binding result [8]: binds
binding result [9]: binds

B11: anti-serum albumin Vκ dAb clones 46, 47, 52, 56 (other)
VL: B9 VL with I30F, H32S, G50N, R53Y, G91V, A92V, R93Y, Q96V
notes: same printed CDRs as clone 55
binding result [9]: binds

B12: anti-serum albumin Vκ dAb clones 30, 35 (other)
VL: B9 VL with I30R, K31R, H32Y, G50Q, R53V, A92L, R93Y, W94P, Q96I
binding result [9]: binds

B13: anti-serum albumin Vκ dAb clones 38, 54 (other)
VL: B10 VL with S93R, V94I
binding result [8]: binds
binding result [9]: binds

B14: MSA26 (other)
VL: B9 VL with I30Y, K31Y, G50K, R53T, G91V, A92R, R93K, W94V, Q96R
notes: also called 25; dAb MSA26
Kd [7]: 70 nM

B15: VH CH/VH Cκ dual specific Fab like fragment (HEL4 CH, TAR2-5 Cκ) (Fab, V domains shown, not shown: a dimerising Fc or GST; small tags and cut ends)
V domain 1: EVQLLESGGGLVQPGGSLRLSCAASGFRISDEDMGWVRQAPGKGLEWVSSIYGPSGSTYYADSVKGRFTISRDNSKNTLYLQMNSLRAEDTAVYYCASALEPLSEPLGFWGQGTLVTVSS
V domain 2: EVQLLESGGGLVQPGGSLRLSCAASGFTFDLYNMFWVRQAPGKGLEWVSFISQTGRLTWYADSVKGRFTISRDNSKNTLYLQMNSLRAEDTAVYYCAKTLEDFDYWGQGTLVTVSS
ELISA signal [10]: 0.154

B16: HEL4 (other)
VH: B15 V domain 1
notes: also called VH dAb HEL4; anti-hen egg white lysozyme dAb
binding result [11]: binds

B17: VH Cκ chain expressed alone (protein, not shown: a dimerising Fc or GST; small tags and cut ends)
VH: B15 V domain 2
ELISA signal [10]: 0.069

B18: TAR1-5-19 dAb monomer (other)
VL: DIQMTQSPSSLSASVGDRVTITCRASQSIDSYLHWYQQKPGKAPKLLIYSASELQSGVPSRFSGSGSGTDFTLTISSLQPEDFATYYCQQVVWRPFTFGQGTKVEIKR
notes: also called TAR1-5-19 monomer; TAR1-5-19 Vκ dAb
ND50 in the cell assay [5]: ~30 nM
IC50 [1]: 30 nM
Kd [12]: 30 nM

B19: TAR1/TAR2 IgG (bispecific antibody, V domains shown)
VH: EVQLLESGGGLVQPGGSLRLSCAASGFTFEWYWMGWVRQAPGKGLEWVSAISGSGGSTYYADSVKGRFTISRDNSKNTLYLQMNSLRAEDAAVYYCAKVKLGGGPNFGYRGQGTLVTVSS
VL: B18 VL
notes: expressed in COS7 cells with CD33 or IgG κ leader, purified on Protein A; also called the IgG; not shown: IgG1 heavy chain constant region (CH1 from the CH vector; hinge, CH2 and CH3 from the pigplus vector); light chain kappa constant region (CK domain from the CK vector)
binding result [13]: binds

B20: TAR1-5-19, MSA16 cys bonded heterodimer (bispecific antibody, V domains shown)
V domain 1: B18 VL
V domain 2: DIQMTQSPSSLSASVGDRVTITCRASQSIIKHLKWYQQKPGKAPKLLIYGASRLQSGVPSRFSGSGSGTDFTLTISSLQPEDFATYYCQQGARWPQTFGQGTKVEIKR
modifications: C-terminal Cys disulphide bonded to the C-terminal Cys of the MSA16 chain ; chain 1 pos 109 Cys and chain 2 pos 109 Cys are joined by an intermolecular disulphide bond (chemical coupling via dithiodipyridine); no tags
notes: two Vκ dAbs joined by a disulphide bond; separated from monomers by cation exchange; also called disulphide bonded heterodimer of TAR1-5-19 dAb and MSA16 dAb; heterodimeric species
IC50 [1]: ~18 nM
